{"source": "paper PMC6594588", "key": {"[1]": {"target": "Flp(Y343F)-SUMO (S. cerevisiae (2-micron plasmid) | not stated) (UniProt P03870)"}, "[2]": {"target": "T1, Flp(Y343F) (S. cerevisiae (2-micron plasmid)) (UniProt P03870)", "T1 sequence": "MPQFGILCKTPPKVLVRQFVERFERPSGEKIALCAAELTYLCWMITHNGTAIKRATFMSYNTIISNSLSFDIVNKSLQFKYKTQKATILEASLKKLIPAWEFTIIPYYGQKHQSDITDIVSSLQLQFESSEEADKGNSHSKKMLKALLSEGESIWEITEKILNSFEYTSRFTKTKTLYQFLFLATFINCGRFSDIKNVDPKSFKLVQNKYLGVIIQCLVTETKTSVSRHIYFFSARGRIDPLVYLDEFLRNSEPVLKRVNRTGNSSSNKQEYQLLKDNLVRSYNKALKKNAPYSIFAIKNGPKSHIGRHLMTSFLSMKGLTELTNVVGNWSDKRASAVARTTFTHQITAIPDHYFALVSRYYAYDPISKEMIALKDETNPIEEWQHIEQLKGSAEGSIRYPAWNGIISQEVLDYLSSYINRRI"}}}
{"substance": "Flp(R191A)-SUMO (from UniProt P03870 1-423; Q12306 1-96) (enzyme)", "values": [{"measurement": "strand cleavage complementation on separately pre-bound half-sites; cleavage yield against that of Flp(R191A) with Flp(Y343F)-SUMO", "setting": "[1]", "value": 1.6, "unit": "fold"}, {"measurement": "strand cleavage complementation on separately pre-bound half-sites; cleavage yield against that of Flp(R191A) with Flp(Y343F)", "setting": "[2]", "value": 1.5, "unit": "fold"}, {"measurement": "strand cleavage complementation on separately pre-bound half-sites; cleavage yield against that of Flp(R191A)-SUMO with Flp(Y343F)-SUMO", "setting": "[2]", "value": 1.5, "unit": "fold"}]}
